According to patent US8735553 (BEIGENE SWITZERLAND, dated 2014):
Where two headings read alike, the source gives them in different places.

Assays:
[1] = biological target: T1, human PD-1 expressed on cells (human, UniProt Q15116 25-288); assay: cell-based or functional assay
[2] = biological target: P3Z chimeric PD-1 receptor (human); assay: cell-based or functional assay
[3] = biological target: T1, human PD-1 expressed on cells; assay: FACS on PD-1-expressing cells
[4] = biological target: P3Z chimeric PD-1 receptor (human); assay: cell-based or functional assay; remark: listed apart in the source

T1 sequence (Q15116 25-288): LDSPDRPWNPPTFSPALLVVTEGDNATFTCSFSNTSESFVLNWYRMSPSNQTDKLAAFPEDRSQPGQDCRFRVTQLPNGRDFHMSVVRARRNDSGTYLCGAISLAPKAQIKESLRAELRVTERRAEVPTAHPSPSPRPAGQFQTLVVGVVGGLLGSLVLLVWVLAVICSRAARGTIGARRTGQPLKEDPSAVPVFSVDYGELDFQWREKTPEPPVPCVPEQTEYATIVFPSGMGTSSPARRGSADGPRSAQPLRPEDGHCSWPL
P3Z chimeric PD-1 receptor (human), sequence (chain, as listed by the source mutant limits assumed): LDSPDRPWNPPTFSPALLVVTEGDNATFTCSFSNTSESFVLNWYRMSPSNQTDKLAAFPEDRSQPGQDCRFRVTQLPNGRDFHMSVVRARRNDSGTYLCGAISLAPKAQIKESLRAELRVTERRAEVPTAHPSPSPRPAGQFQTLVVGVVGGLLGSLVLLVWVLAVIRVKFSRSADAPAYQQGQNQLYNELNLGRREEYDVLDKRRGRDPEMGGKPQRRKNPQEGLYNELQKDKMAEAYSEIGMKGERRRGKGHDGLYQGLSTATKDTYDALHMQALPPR

Binder	IL-2 release in HuT78/PD-1, EC50 [1] [µg/mL]	IL-2 release in HuT78/PD-1, Top line [1] [pg/mL]	IL-2 release in HuT78/P3Z, IC50 [2] [µg/mL]	IL-2 release in HuT78/P3Z, Max inhibition [2] [%]	EC50 [3] [µg/mL]	IL-2 release in HuT78/P3Z, EC50 [4] [µg/mL]	IL-2 release in HuT78/P3Z, Max inhibition [4] [%]
hu326-2 E46K (antibody, V domains shown, mAb; constant regions not restated (hu326-1 is IgG2 / kappa); Back mutation to murine) VH: QVQLVQSGSELKKPGASVKVSCKASGYTFTNYGMNWVRQAPGQGLKWMGWINNNNGEPTYAQGFRGRFVFSLDTSASTAYLQISSLKTEDTAVYFCARDVMDYWGQGTTVTVSS VL: DIVLTQSPASLAVSPGQRATITCRASESVDNYGYSFMHWYQQKPGQPPKLLIYRASNLESGVPARFSGSGSRTDFTLTINPVEANDTANYYCQQSKEYPTFGGGTKVEIK	0.259	1240	0.079	95.2	0.132	–	–
Fab hu317-1_Vh / hu317-1_Vκ (Fab, V domains shown) VH: QVQLQESGPGLVKPSETLSLTCTVSGFSLTSYGVHWIRQPPGKGLEWLGVIWAGGSTNYNPSLKSRLTISKDNSKSQVSLKMSSVTAADTAVYYCARAYGNYWYIDVWGQGTTVTVSS VL: DIVMTQSPDSLAVSLGERATINCKASQSVSNDVAWYQQKPGQPPKLLINYAFHRFTGVPDRFSGSGYGTDFTLTISSLQAEDVAVYYCHQAYSSPYTFGGGTKLEIK	–	–	–	–	–	0.3	98.8
Fab hu317-2_S76N / hu317-1_Vκ (Fab, V domains shown) VH: QVQLQESGPGLVKPSETLSLTCTVSGFSLTSYGVHWIRQPPGKGLEWLGVIWAGGSTNYNPSLKSRLTISKDNSKNQVSLKMSSVTAADTAVYYCARAYGNYWYIDVWGQGTTVTVSS VL: DIVMTQSPDSLAVSLGERATINCKASQSVSNDVAWYQQKPGQPPKLLINYAFHRFTGVPDRFSGSGYGTDFTLTISSLQAEDVAVYYCHQAYSSPYTFGGGTKLEIK	–	–	–	–	–	0.28	98.6
Fab hu317-2_L48I / hu317-1_Vκ (Fab, V domains shown) VH: QVQLQESGPGLVKPSETLSLTCTVSGFSLTSYGVHWIRQPPGKGLEWIGVIWAGGSTNYNPSLKSRLTISKDNSKSQVSLKMSSVTAADTAVYYCARAYGNYWYIDVWGQGTTVTVSS VL: DIVMTQSPDSLAVSLGERATINCKASQSVSNDVAWYQQKPGQPPKLLINYAFHRFTGVPDRFSGSGYGTDFTLTISSLQAEDVAVYYCHQAYSSPYTFGGGTKLEIK	–	–	–	–	–	0.37	98.5
Fab hu317-2_M82L / hu317-1_Vκ (Fab, V domains shown) VH: QVQLQESGPGLVKPSETLSLTCTVSGFSLTSYGVHWIRQPPGKGLEWLGVIWAGGSTNYNPSLKSRLTISKDNSKSQVSLKLSSVTAADTAVYYCARAYGNYWYIDVWGQGTTVTVSS VL: DIVMTQSPDSLAVSLGERATINCKASQSVSNDVAWYQQKPGQPPKLLINYAFHRFTGVPDRFSGSGYGTDFTLTISSLQAEDVAVYYCHQAYSSPYTFGGGTKLEIK	–	–	–	–	–	0.27	98.5
Fab hu317-2_L67V / hu317-1_Vκ (Fab, V domains shown) VH: QVQLQESGPGLVKPSETLSLTCTVSGFSLTSYGVHWIRQPPGKGLEWLGVIWAGGSTNYNPSLKSRVTISKDNSKSQVSLKMSSVTAADTAVYYCARAYGNYWYIDVWGQGTTVTVSS VL: DIVMTQSPDSLAVSLGERATINCKASQSVSNDVAWYQQKPGQPPKLLINYAFHRFTGVPDRFSGSGYGTDFTLTISSLQAEDVAVYYCHQAYSSPYTFGGGTKLEIK	–	–	–	–	–	0.3	98.6
Fab hu317-2_N73T / hu317-1_Vκ (Fab, V domains shown) VH: QVQLQESGPGLVKPSETLSLTCTVSGFSLTSYGVHWIRQPPGKGLEWLGVIWAGGSTNYNPSLKSRLTISKDTSKSQVSLKMSSVTAADTAVYYCARAYGNYWYIDVWGQGTTVTVSS VL: DIVMTQSPDSLAVSLGERATINCKASQSVSNDVAWYQQKPGQPPKLLINYAFHRFTGVPDRFSGSGYGTDFTLTISSLQAEDVAVYYCHQAYSSPYTFGGGTKLEIK	–	–	–	–	–	0.31	98.3
Fab hu317-2_K71V / hu317-1_Vκ (Fab, V domains shown) VH: QVQLQESGPGLVKPSETLSLTCTVSGFSLTSYGVHWIRQPPGKGLEWLGVIWAGGSTNYNPSLKSRLTISVDNSKSQVSLKMSSVTAADTAVYYCARAYGNYWYIDVWGQGTTVTVSS VL: DIVMTQSPDSLAVSLGERATINCKASQSVSNDVAWYQQKPGQPPKLLINYAFHRFTGVPDRFSGSGYGTDFTLTISSLQAEDVAVYYCHQAYSSPYTFGGGTKLEIK	–	–	–	–	–	0.48	96.5
Fab hu317-1_Vh / HU317-2_G100Q (Fab, V domains shown) VH: QVQLQESGPGLVKPSETLSLTCTVSGFSLTSYGVHWIRQPPGKGLEWLGVIWAGGSTNYNPSLKSRLTISKDNSKSQVSLKMSSVTAADTAVYYCARAYGNYWYIDVWGQGTTVTVSS VL: DIVMTQSPDSLAVSLGERATINCKASQSVSNDVAWYQQKPGQPPKLLINYAFHRFTGVPDRFSGSGYGTDFTLTISSLQAEDVAVYYCHQAYSSPYTFGQGTKLEIK	–	–	–	–	–	0.27	98.9

Second part, the binder after the results:

IL-2 release in HuT78/PD-1, EC50 [1] [µg/mL]	IL-2 release in HuT78/PD-1, Top line [1] [pg/mL]	IL-2 release in HuT78/P3Z, IC50 [2] [µg/mL]	IL-2 release in HuT78/P3Z, Max inhibition [2] [%]	EC50 [3] [µg/mL]	IL-2 release in HuT78/P3Z, EC50 [4] [µg/mL]	IL-2 release in HuT78/P3Z, Max inhibition [4] [%]	Binder
0.112	1000	0.071	96.7	0.102	–	–	hu326-2 A76V (antibody, V domains shown, mAb; constant regions not restated (hu326-1 is IgG2 / kappa); Forward mutation to human) VH: QVQLVQSGSELKKPGASVKVSCKASGYTFTNYGMNWVRQAPGQGLEWMGWINNNNGEPTYAQGFRGRFVFSLDTSVSTAYLQISSLKTEDTAVYFCARDVMDYWGQGTTVTVSS VL: DIVLTQSPASLAVSPGQRATITCRASESVDNYGYSFMHWYQQKPGQPPKLLIYRASNLESGVPARFSGSGSRTDFTLTINPVEANDTANYYCQQSKEYPTFGGGTKVEIK
0.126	1050	0.078	96.3	0.155	–	–	hu326-2 A16E (antibody, V domains shown, mAb; constant regions not restated (hu326-1 is IgG2 / kappa); Back mutation to murine) VH: QVQLVQSGSELKKPGESVKVSCKASGYTFTNYGMNWVRQAPGQGLEWMGWINNNNGEPTYAQGFRGRFVFSLDTSASTAYLQISSLKTEDTAVYFCARDVMDYWGQGTTVTVSS VL: DIVLTQSPASLAVSPGQRATITCRASESVDNYGYSFMHWYQQKPGQPPKLLIYRASNLESGVPARFSGSGSRTDFTLTINPVEANDTANYYCQQSKEYPTFGGGTKVEIK
–	–	0.102	95.8	0.098	–	–	hu326-2 T88N (antibody, V domains shown, mAb; constant regions not restated (hu326-1 is IgG2 / kappa); Back mutation to murine) VH: QVQLVQSGSELKKPGASVKVSCKASGYTFTNYGMNWVRQAPGQGLEWMGWINNNNGEPTYAQGFRGRFVFSLDTSASTAYLQISSLKNEDTAVYFCARDVMDYWGQGTTVTVSS VL: DIVLTQSPASLAVSPGQRATITCRASESVDNYGYSFMHWYQQKPGQPPKLLIYRASNLESGVPARFSGSGSRTDFTLTINPVEANDTANYYCQQSKEYPTFGGGTKVEIK
–	–	–	–	–	0.35	79.7	Fab hu317-3A / hu317-1_Vκ (Fab, V domains shown) VH: QVQLQESGPGLVKPSETLSLTCTVSGFSLTSYGVHWIRQPPGKGLEWIGVIWAGGSTNYNPSLKSRVTISVDTSKNQFSLKLSSVTAADTAVYYCARAYGNYWYIDVWGQGTTVTVSS VL: DIVMTQSPDSLAVSLGERATINCKASQSVSNDVAWYQQKPGQPPKLLINYAFHRFTGVPDRFSGSGYGTDFTLTISSLQAEDVAVYYCHQAYSSPYTFGGGTKLEIK
–	–	–	–	–	0.38	98	Fab hu317-2_V78F / hu317-1_Vκ (Fab, V domains shown) VH: QVQLQESGPGLVKPSETLSLTCTVSGFSLTSYGVHWIRQPPGKGLEWLGVIWAGGSTNYNPSLKSRLTISKDNSKSQFSLKMSSVTAADTAVYYCARAYGNYWYIDVWGQGTTVTVSS VL: DIVMTQSPDSLAVSLGERATINCKASQSVSNDVAWYQQKPGQPPKLLINYAFHRFTGVPDRFSGSGYGTDFTLTISSLQAEDVAVYYCHQAYSSPYTFGGGTKLEIK
